Measured values as given in PMC5469797, “Discovery of a novel conformational equilibrium in urokinase-type plasminogen activator” (Scientific Reports, 2017).

Target: T1, full-length muPA inhibited at the active site with Glu-Gly-Arg-chloromethylketone (Mus musculus, UniProt P06869, irreversible active site binding ligand Glu-Gly-Arg-chloromethylketone (EGR-cmk) in the active site)
T1 construct: as m2; source: HEK293 6E suspension cells, purified by nickel-Sepharose chromatography; reacted with EGR-cmk
Test: SPR; BiaCore T100, 22 °C, curves fitted to a 1:1 binding model; who was immobilised is not told (SI Methods)
Conditions: both partners purified

T1 sequence (P06869 21-433): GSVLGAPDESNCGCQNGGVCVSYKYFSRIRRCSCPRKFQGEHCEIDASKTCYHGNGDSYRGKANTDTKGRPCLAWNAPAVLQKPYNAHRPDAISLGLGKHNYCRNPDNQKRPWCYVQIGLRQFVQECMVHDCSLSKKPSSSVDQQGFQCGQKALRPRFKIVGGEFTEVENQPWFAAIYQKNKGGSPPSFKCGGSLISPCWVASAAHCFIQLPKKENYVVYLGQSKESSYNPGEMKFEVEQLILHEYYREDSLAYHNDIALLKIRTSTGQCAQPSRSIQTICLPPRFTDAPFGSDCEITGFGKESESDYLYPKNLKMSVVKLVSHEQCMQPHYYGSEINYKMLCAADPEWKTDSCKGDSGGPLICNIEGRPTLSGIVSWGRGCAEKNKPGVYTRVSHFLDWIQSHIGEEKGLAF

B1: anti-muPA allosteric nanobody Nb7 (VHH)
VHH: QVQLQESGGGLVQPGGSLRLSCAASGFTLGYYAIGWFRRAPGKEREGVSCISSSGGSTNYADSVKGRFTISRDNAKNTVDLQMNSLKPEDTAIYYCAAEWVPPGYGATVQALCNNAGYGMEYWGKGTQVTVSS
notes: from an immunised alpaca phage library; All residues of Nb7 were visible in the electron density of 5LHN; source: E. coli WK6 (su-), produced as described previously
Question: With B1 as the binder, how does the “fold change of KD against muPA without EGR-cmk” value read?
Answer: 1.5 fold
